Source: publication PMC4621513

Biological target: APOBEC3G (A3G) protein, Q9HC16
Experiment: AFM topographic imaging (protein volume); A3G mixed 2:1 with hybrid DNA substrate (418 bp duplex with 69 nt ssDNA overhang, deaminase specific or nonspecific) in 50 mM HEPES pH 7.5, 100 mM NaCl, 5 mM MgCl2, 1 mM DTT, 15 min at 37 °C; deposited on APS-mica, imaged in air; protein volume converted to mass; stoichiometry of A3G on the ssDNA
Conditions: remark: other sources report otherwise

- stoichiometry N: 2
B1: APOBEC3G (A3G) protein, Q9HC16 1-384 (enzyme)
chain: MKPHFRNTVERMYRDTFSYNFYNRPILSRRNTVWLCYEVKTKGPSRPPLDAKIFRGQVYSELKYHPEMRFFHWFSKWRKLHRDQEYEVTWYISWSPCTKCTRDMATFLAEDPKVTLTIFVARLYYFWDPDYQEALRSLCQKRDGPRATMKIMNYDEFQHCWSKFVYSQRELFEPWNNLPKYYILLHIMLGEILRHSMDPPTFTFNFNNEPWVRGRHETYLCYEVERMHNDTWVLLNQRRGFLCNQAPHKHGFLEGRHAELCFLDVIPFWKLDLDQDYRVTCFTSWSPCFSCAQEMAKFISKNKHVSLCIFTARIYDDQGRCQEGLRTLAEAGAKISIMTYSEFKHCWDTFVDHQGCPFQPWDGLDEHSQDLSGRLRAILQNQEN
